test: soluble fraction after stress (log2 fold change); higher = more stays soluble; pooled small domains, quantitative proteomics; settings: stress: pH 4
Outline: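 Custom libraries of small protein domains were pooled and exposed to pH 4. High-throughput quantitative proteomics then measured the log2 fold change in the amount of each domain still soluble, with higher values meaning more stayed soluble. This soluble-fraction fold change stands for aggregation propensity.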

Row | Sequence | soluble fraction (log2)
1 | HMSSQLETTFATLIGKRVSIRLHDPEGGFRDILGHLESPYSLRNRHGNLIEFAHDQIFLWREVI | -1.18
2 | HMHVLNEEYYNRIKAIQFTMNHDDGNSLNDIEKSDIILLGVSRTSKTPTSIYLANRGLRTSNIPLINEK | -0.316
3 | HMKQGKGIIVVDGKLMPEDFNVATLSLDEVESITVLKGEKAVALYGEKAKEREVLLITTQKG | -0.316
4 | HMPPFDDILAEYYEPLYRHVRRMVVSHDDAKDVMQEAMLRIFQGLDGLKDPSAVRTWVWRIATNEALRH | -1.76
5 | HMRRVGTALNRSHKVSYGESIQSIAARYNVNPTMLREYNRLKPEATITPGQILRIPPATIAS | -0.195
6 | HMSTFAQNLRALMEKRGVSQNELARSAGLTQSAINKILTGKTKQPGIDTTEAIARVLNVSVAQLIYT | 0.22
7 | HMKKYDIKEAQEIAEINRIPGLVTTSHGRRVYFDPKIMQYVSEEQIVKKYGQKTVKMLDQWYVSNILNK | 0.419
8 | HMSNNLAYSQFLDRVKNKEIRKVEIRGQSIVGYTSNNETFKTYAPLNDPKMYDELLTNDVQVQVDPP | 0.0357
9 | HMAKDEYGLTSNQRAFADEYIRNKGNATQAYLFAYPHIKKENTAAVNASRLLRNAKVSKYIADRTKEIL | -0.146
10 | HMRQSDIAAAFRESILRSSKGFQYLHTRDFVTALRRRGIHLSEVEANSWIAREKTYFVDSALDHSENRLWI | -0.634
11 | HMDQVYYDLKSLIELLPADQMEVLKMRYFEELSFKKIAQKIDVSINTALGRMRYALINLRALSKKHHID | -1.02
12 | HMDSAFVSDIRDAFDEAGVDSYRFFGTHSFKRGGVQLYRLLGVSDQEIKERGHWQTFSAYFAYVQA | -0.303
13 | HMKSDEGEIKKIVEEIISKNASVVEDYKKGKEVALQFLVGQGMKATKGSANPELLKKIILENI | -0.105
14 | HMNIEDFKDKVKELKQYTYQELVEDVKLKTDRADVILPASKIYLEAMQQAKVDSIIVPKVGLAEGVAR | 0.149
15 | HMVDSTDLIPLLIKVSREKQGNKKLNWGEWLKIPENIYLKQINENIARKVFEDTNDLIDEAVNYINRKRRN | -0.558
16 | HMKRITGHLTEKNKKWYAVINLYDTDGKRKEKWQGLNLDANKGNKREAEHRLRQILDQYNTD | 0.125
17 | HMGDWITGTVTRIADNGWGTFQPENAHNTVSIPPKMVADNQLKEADSIKIIAEPSPDGTKTFIKAISRE | 0.214
18 | HMLTKSVLGNQIKVLRLEKGLSQEEFGAPVDLSRSAVSQIESGQMYPSLESIGKIVKYYSTSWDNLVG | -0.162
19 | HMKTTKDSVFEYIQKELMTNEEYKQGINTNVIAQHFGLQRSNISTILNELVKEDRLEKTNTRPVLYFLPQ | 0.184
20 | HMDPTVSGQTGSVVREIRPGVPGEVELSVPLYGIRRWQAMADGILAEGTRVTVIQAEGVRLSVRPV | -0.251
21 | HMTITDDETHKVLEEGASRMSEGLTFRDLVDLDRLHLTARGVIQKVLNENRIDADVDTIANMAQKLVARVS | -0.567
22 | HMTEQKNNEQQNAVNEKKQALKQLMEKGKEKGSLSYNEVNALLDKLEFTEDQKAIVYDQLHSEDIELQ | 0.22
23 | HMYVVLYPGMARDEAVQVMNELQSRGIDYYEKNGNIYVPKTDENSLRMELANLGYPKTTNNYD | -0.188
24 | HMSLANTSVKEMLNDLVKNEEPSKPLSDEALVKIFKEKGVKIARRTVAKYRAELNILPSHLRRT | -0.116
25 | HMSGKWKIRILWYIAEYEVQRFGELRRRLGDITQSTLTEQLRELEQDGFVSRYVYQEVPSKVEYSLTE | -0.0562
26 | HMSARKVTVALHTRDHADRLRRLLKHEGVSADLVAARLSHKLTDHPIEVRVNEDDIPAVLRIIENIEIF | -0.707
27 | HMNRIEMTEPIIIKDLSRETGIPWVAIQKRLAQDGIMANINTTIEAEKAQLIAVDYGIELAVV | -0.54
28 | HMLEEIIDVKRFLVENVRGVSEKTALAILSEFGDKTMDVLRNSPNELYRIKGMSGKRIEVIKDAIANATAS | -1.33

Row | Sequence | soluble fraction (log2)
29 | HMGVGVTAPLAGNIFKIVKQPGDVVASGDVVLILEAMKMETEIRAAAGGTVKQVLVREGDAVDAGHTLMTL | -1.59
30 | HMSDTFENILQRLIKATGRKNASEMANALGLSPQSVYSAKTKGKIPPAWIFAAAERFNASADWIYFGY | -0.759
31 | HMLGKSNAERQLDLILGAIERSITGVSRSKLMQAYHLDSRGATAAFETLEQRGLITRSKSGRTELLIPTRV | 0.126
32 | HMHTGLAELTDRERDVLRLIATGMTNAAIGSALAYSPSTIRADTVSIYRKLEVRGRAEAAAVAVAAGLTQP | 0.123
33 | HMKEQYDLNDREQQFISLVANGLNNKEIAETLFLSEGTVRNYLSNLLDKLGLRDRTQLAIFFYQHL | -1.74
34 | HMDSTLDLVATQGGRLDQVLAEMIPEHSRNRLQHWIKAGRVLVDGQPVLEPKHKIYGGEDLAVRVD | 0.123
35 | HMDLDIGSVLQASRGEKKISLRQLAERTGLTASMLSQIERNLVNPSINTLKVIAAALEIPMYKFFMG | -0.583
36 | HMKDLQHLVGEKGTTVTPLRPSGIALIKGSRYDVVSEGSFIQQGVAVEVIKVEGRRVVVSPLQED | -0.0748
37 | HMTRETTQAWWEARQTLPSGEQRSAASLSQEASHVRRFYRWAMQQGLTDRNPADWLPDVRQK | -0.062
38 | HMNIKITKSKNSEHYSIIYNTKINGKRTSKIYENIGNFEKLKLRAGEQEPIEWLKNYVSELNKKQKEDT | 0.22
39 | HMKTYSEAQLKIALESLIENGKKQGYLTFQEINEILPDGIINTQDLKVIISILKETGIVVAKEKPEINIDV | 0.273
40 | HMDPDDEILINIMTKLLTEKQIIIKNKEIFNFLLKRINRTYEEVYNLINKMDKLSLEKKKQLTIPSIKEL | -1.52
41 | HMEQNTKAYEQVRTLTDLLNQYRHEYYNLSAPSVSDQEYDRLFDALAALEKQTGIVMSNSPTQTVG | -0.497
42 | HMPLITDIKIQVKNTEKVSLFVDGKYSFSLTISQLAEHKILKTNQEISAKQVAEFKKLSNLTNLYIRIVG | -0.296
43 | HMYRLDVEISDEIKRDIDEETLSEIKGIIAEDPRPSYQNDETRIYRFTFAGREISFRVKDRTATVTEIL | -0.736
44 | HMGGRRHANMSREEEAAFLAPFFEKAAQGGILVVREIRQALDAHLGRTVPLSTVYNLLHRHNWRKL | 0.379
45 | HMDSPRITMDQLRIGLYVYLDLTWFQHPFAFSHFKINSEDQIKTILGLGLKSVRYDPALSDPV | -0.645
46 | HMYVKKSSFVKKSLNNYEFKITDNTNDLLIFYKGMLPDLFREEQGIVVEGLIDKNNNIVASKV | -0.0152
47 | HMTQTAVFSKGEQEYYFPLSKVLFFETDGNTINVHTADDIYETRYRLYELEEMLPGSFMRISKSAVVNTNR | -0.161
48 | HMAPVLTRREHEVLHLLTDGLDNRTIARNLFISEATVKFHLHNIMGKFGVHRRAALVSTALRG | -0.182
49 | HMAQVSDTGELEGVVDGVLAANAKSVADFQAGKENAFQYLIGQVMKETKGKANPEVVATLLRTKLS | 0.121
50 | HMRSVTLQTDREGDILYVDGKQIGVSPQRLELSYGVHTIRAERGEQHTEKELEVTETGGETVVTLGFG | -0.0908
51 | HMTYQTVRYGSTGSAVRQLQSALNQKGYQLSEDGIFGAKTRAAVRDYQKKNGLLLDGIAGSQTWNHLMS | ≥ 0.43
52 | HMAAVPQPQRSETIVYIGGRKFYVHTVQAGETLYSIARLYGVSEQTLVANNPTMADVVKADQNVRIPVPA | -0.00329
53 | HMNETRVDQAADLLLALLEKEPKSAAEILDEFEQAGFSKSGLYRAKDALGVVSIRKEGRWVWSLPHSLD | -0.778
54 | HMDVQPTTTKTMFYTVQQGETLFSISRKFGISVEEITKKNPLASSGLTVGMELLLPEKKEINSTIQS | -0.0195
55 | HMRMTKQRQAVLDELTRVTDFRSAQQIFEDLHSQGHRVGLATIYRSLQGLAEDGSVDTLRSSDGESLY | -0.169

From the domain aggregation screens of Martell et al. (2025)
